In article PMC10901741, “Autonomous transposons tune their sequences to ensure somatic suppression”:

Tests used:
Conditions in all cases: protein: recombinant; tags: Halo (N-terminal 10xHis-TEV removed), OregonGreen on Halo; label: 3' CF 647 hydrazide (periodate-oxidized end); single-stranded
Halo-TRA2B RRM [1] = target: T1, Halo-TRA2B RRM (UniProt P62995 111-201); experiment: EMSA; protein 3.6-102.4 uM; clearly higher affinity than SAFB1 RRM; EMSA: 25 mM Tris-Cl pH 7.4, 50 mM KCl, 5% glycerol, 1 mM DTT, ~100 nM RNA, 30 min on ice, 8% native PAGE 0.5x TBE; pull-down: 25 mM Tris-Cl pH 7.4, ~75 mM KCl
T1 sequence: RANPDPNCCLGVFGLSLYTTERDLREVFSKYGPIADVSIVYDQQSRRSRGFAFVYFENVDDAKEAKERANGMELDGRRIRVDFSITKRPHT

Halo-SAFB1 RRM [2] = target: T2, Halo-SAFB1 RRM (UniProt Q15424 386-485); experiment: EMSA; protein 3.6-102.4 uM; lower affinity than TRA2B RRM; EMSA: 25 mM Tris-Cl pH 7.4, 50 mM KCl, 5% glycerol, 1 mM DTT, ~100 nM RNA, 30 min on ice, 8% native PAGE 0.5x TBE; pull-down: 25 mM Tris-Cl pH 7.4, ~75 mM KCl
T2 sequence (Q15424 386-485): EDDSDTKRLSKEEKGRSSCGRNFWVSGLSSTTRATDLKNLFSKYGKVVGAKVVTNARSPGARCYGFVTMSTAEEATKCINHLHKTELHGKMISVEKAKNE

Halo-SAFB1 RRM [3] = target: T2, Halo-SAFB1 RRM; experiment: EMSA; protein 3.6-102.4 uM; barely affected by m6A; EMSA: 25 mM Tris-Cl pH 7.4, 50 mM KCl, 5% glycerol, 1 mM DTT, ~100 nM RNA, 30 min on ice, 8% native PAGE 0.5x TBE; pull-down: 25 mM Tris-Cl pH 7.4, ~75 mM KCl
Halo-TRA2B RRM [4] = target: T1, Halo-TRA2B RRM; experiment: EMSA; protein 3.6-102.4 uM; lost all interactions; EMSA: 25 mM Tris-Cl pH 7.4, 50 mM KCl, 5% glycerol, 1 mM DTT, ~100 nM RNA, 30 min on ice, 8% native PAGE 0.5x TBE; pull-down: 25 mM Tris-Cl pH 7.4, ~75 mM KCl

Does GGGAAGAAGAAGAAGAAGAAGAAGAU (ssRNA) [(AGA)x7 RNA, unmethylated] bind (Halo-TRA2B RRM [1])?
Result: binds

Does GGGAAGAAGAAGAAGAAGAAGAAGAU (ssRNA) [(AGA)x7 RNA, unmethylated] bind (Halo-SAFB1 RRM [2])?
Result: binds

What does the source list for GGGAAGAAGAAGAAGAAGAAGAAGAU (ssRNA, all A are N6-methyladenosine) [(m6AGm6A)x7 RNA, methylated]?
binding result (Halo-SAFB1 RRM [3]): binds; binding result (Halo-TRA2B RRM [4]): no binding
